In this data set the target is T1, MdNAC7 (Malus domestica, UniProt D9ZJA6 1-263).
T1 sequence: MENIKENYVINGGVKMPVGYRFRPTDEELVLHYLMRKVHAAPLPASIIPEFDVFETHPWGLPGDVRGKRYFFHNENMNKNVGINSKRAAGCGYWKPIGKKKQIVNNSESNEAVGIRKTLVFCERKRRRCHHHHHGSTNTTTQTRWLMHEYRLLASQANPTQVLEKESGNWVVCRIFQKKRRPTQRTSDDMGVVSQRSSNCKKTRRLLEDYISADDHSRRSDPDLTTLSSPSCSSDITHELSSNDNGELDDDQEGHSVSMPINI
Briefly: EMSA; LightShift Chemiluminescent EMSA kit, 10 uL, room temperature 30 min, 6% polyacrylamide gel in 0.5x TBE; salt and pH not stated. To be noted: protein: recombinant; chain copies: 2; label: biotin. (Mobility shift assays separate free from complexed probe on a gel.)

B1: MdXTH2 promoter probe for MdNAC7 (dsDNA)
DNA 1: GTAGTACACCATGTGTTATTAT
DNA 2: ATAATAACACATGGTGTACTAC
B1: the binding result was “no binding”.

The values are drawn from publication PMC11606422, “MdWRKY31‐MdNAC7 regulatory network: orchestrating fruit softening by modulating cell wall‐modifying enzyme MdXTH2 in response to ethylene signalling”.
